System: MS2 coat protein
Test: apparent KD of MS2 coat protein; designed switch direction (-1 OFF switch, 1 ON switch): -1; higher = weaker reporter binding
In short: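 Apparent KD, taken as the median over clusters for each design, was obtained by curve-fitting normalised cluster fluorescence. Designed RNA switches had been transcribed on Illumina chips by stalled E. coli RNA polymerase and titrated with SNAP-549-labelled MS2 coat protein, doubling from 0.7 or 1.5 nM to 3 µM.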

[1] = Eterna round: R95, input ligand: FMN 200 uM
[2] = Eterna round: R95, input ligand: microRNA oligo, concentration not stated
[3] = Eterna round: R95, input ligand: none
[4] = input ligand: microRNA oligo, concentration not stated

AUAGGGUCAGGAUAUUGCGCAGUGGACAUGAGGAUCACCCAUGUGAACUUCGUACCGGGCCAAGAAGGGACAGAAA [Tiersoaso] (puzzle: Exclusion 5)
apparent KD of MS2 coat protein [1]: 21.7 nM
apparent KD of MS2 coat protein [2]: 11.3 nM
apparent KD of MS2 coat protein [3]: 13.4 nM

AUAUAGUCAGGAUAUCGAAGUGAGUGUUGGUGGGUAAGGUACGAGAAGGGACAUGAGGAUCACCCAUGUAGGAA [JR_Exclusion4)Sub004] (puzzle: Exclusion 4)
apparent KD of MS2 coat protein [2]: 48 nM

AUCAGCUCGUGAGGAUAUACAUGCGUGCUUCGGCACGAAUUUAAGAUCACAUGAGGAUCACCCAUGUAGAAGGCACGAGCUGAU [ENG2/3-A3] (Eterna round: R96, puzzle: Exclusion NG 2)
apparent KD of MS2 coat protein (input ligand: FMN 200 uM): 1880 nM
apparent KD of MS2 coat protein [4]: 538 nM
apparent KD of MS2 coat protein (input ligand: none): 520 nM

AUCAGCUCGUGAGGAUAUACAUGCGUGCUUCGGCACGAAUUUAAGAUCACAUGAGGAUCACCCAUGUAGAAGGUACGAGCUGAU [ENG2/3-C3] (Eterna round: R96, puzzle: Exclusion NG 2)
apparent KD of MS2 coat protein (input ligand: FMN 200 uM): 498 nM
apparent KD of MS2 coat protein [4]: 287 nM
apparent KD of MS2 coat protein (input ligand: none): 275 nM

AUCAGCUCGUGAGGAUAUAUAUUAACAUGAGGAUCACCCAUGUAAGAUCAGCUUCGGCAGUUAAUAUAGAAGGCACGAGCUGAU [ENG2/14-A2] (Eterna round: R96, puzzle: Exclusion NG 2)
apparent KD of MS2 coat protein (input ligand: FMN 200 uM): 151 nM
apparent KD of MS2 coat protein [4]: 98.8 nM
apparent KD of MS2 coat protein (input ligand: none): 114 nM

AUCAUGUCAGGAUAUGUGACAUGGAUCUUCGGAUCAAGAUCACAGAAGGGACAUGAGGAUCACCCAUGUCGAUC [Ex4-3: 29] (puzzle: Exclusion 4)
apparent KD of MS2 coat protein [2]: 66.9 nM

AUCCUACAUGAGGAUCACCCAUGUCAGGAUAUCCAAGAAAUGUGGCCUGAUUGGCCACGGAGAAGGGACGGGUG [jl-ex1-4.60 ViennaUCT mod] (Eterna round: R97, puzzle: Exclusion 1)
apparent KD of MS2 coat protein (input ligand: FMN 200 uM): 47.2 nM
apparent KD of MS2 coat protein (input ligand: none): 45 nM

AUCGUAGCAGGAUAUCCGGAGAUUGACAUGAGGAUCACCCAUGUGGUCAUGCCAGCCAAUGGAGAAGGGUUUCGGU [Eternabot (L1) Solution 49] (Eterna round: R97, puzzle: Exclusion 5)
apparent KD of MS2 coat protein (input ligand: FMN 200 uM): 618 nM
apparent KD of MS2 coat protein (input ligand: none): 637 nM

AUCGUGCAGCUUUGCUGUACGAGUACAUGAGGAUCACCCAUGUAGGAUAUGGUACGCUUUGCGUGCUAGAAGGAUAUGCGUUUG [EX ENG3 1.45] (Eterna round: R96, puzzle: Exclusion NG 3)
apparent KD of MS2 coat protein (input ligand: FMN 200 uM): 46.7 nM
apparent KD of MS2 coat protein [4]: 40 nM
apparent KD of MS2 coat protein (input ligand: none): 41.3 nM

AUCGUGUGAGGAUAUCGAUUAUGGAAGUCUAGGUCCAUACGCGAGAAGGCACAUGAGGAUCACCCAUGUAAUGG [jl-ex4-4.32 ViennaUCT mod] (Eterna round: R97, puzzle: Exclusion 4)
apparent KD of MS2 coat protein (input ligand: FMN 200 uM): 29.8 nM
apparent KD of MS2 coat protein (input ligand: none): 486 nM

AUCUGCACGCUGCGGUCCUACAUGAGGAUCACCCAUGUGGUCUGGUGGCGUGGGUCGCCGGACUUGGCUCGUCUUGA [salish99_S_TOV1_R5_043] (Eterna round: R97, puzzle: Sensor, turn-off variant 1)
apparent KD of MS2 coat protein (input ligand: FMN 200 uM): 18.1 nM
apparent KD of MS2 coat protein (input ligand: none): 18.1 nM

AUCUUGAUAGGAUAUACAUGAGGAUCACCCAUGUCCCACCCGUUACCUCUGGCCCUAUGUAGAAGGAUCGUCUA [Exy#20] (Eterna round: R97, puzzle: Exclusion 3)
apparent KD of MS2 coat protein (input ligand: FMN 200 uM): 50.5 nM
apparent KD of MS2 coat protein (input ligand: none): 68.5 nM

AUCUUUGCUCGUCAAAUUUACAUGAGGAUCACCCAUGUCUACCUGAGUGCGUCGGGACUGUACGUCAGCCGGUGGAA [Eternabot (L2) Solution 15] (Eterna round: R97, puzzle: Sensor, turn-off variant 1)
apparent KD of MS2 coat protein (input ligand: FMN 200 uM): 23.3 nM
apparent KD of MS2 coat protein (input ligand: none): 25 nM

AUGAGCAGACGGAGAUCCAACAUGAGGAUCACCCAUGUCUCAAAAGCUUUUUGCUCAUCUUAUCGUACCUUGGUGCU [Mat - Sensor v3 - turn-off var 1 - JL Mod - D13] (puzzle: Sensor v3, turn-off variant 1)
apparent KD of MS2 coat protein [1]: 162 nM
apparent KD of MS2 coat protein [2]: 15.4 nM
apparent KD of MS2 coat protein [3]: 238 nM

Source: the supplement of paper PMC9170038
